The text below walks through data of patent US10054602B2, “Conjugate of estradiol and applications thereof” (CHRIST UNIVERSITY, priority 2016, dated 2018).

Entries after “also recorded” stand apart in the source; their conditions may differ. Like-named read-outs stand apart in the source and are kept apart here. Some results are limits rather than exact numbers.

In one data set the test system is MCF-7 cells. Briefly: inhibition of nuclear entry of estrogen conjugated dye in MCF-7 cells. The data set is classed as cell-based, Human. On the procedure:
The estrogenic activity is examined using human mammary carcinoma MCF-7 cells. The cells are cultured with various concentrations of Diethylstilbestrol (DES) and estrogen conjugated dye for more than 5 days and then the cells were counted.
A very clear distinction on non-specific binding is observed and the binding is only seen in the cytoplasm.

Another data set deals with MDA-MB-231 [ER-] cells. Kind of data set: NIRF staining / confocal laser microscopy of MDA-MB-231 control cells. The data set is classed as cell-based, Human. Particulars: 1 μM. As to the method:
(§1) Human breast cancer cell lines MCF-7 [ER+] and MDA-MB-231 [ER-] are obtained from National Centre for Cell science (NCCS (Pune)). The cells are cultured, revived and the experiments are carried out at Advanced Centre for Treatment, Research and Education in Cancer (ACTREC) of Tata Memorial Centre (Mumbai).
MCF-7 and MDA-MB-231 cells are cultured in DMEM/F12 medium without phenol red (ACTREC, Mumbai) supplemented with 10% fetal bovine serum. Cells in suspension (50 μl) are added to each well of a 96-well culture plate for a final concentration of 1×10^3 Cells/well and incubated for 24 h at 37° C. in carbon dioxide chamber. […]
These cells retained several characteristics of differentiated mammary epithelium including ability to process estradiol via Nuclear and cytoplasmic estrogen receptors and the capability of forming domes. […] The nuclear staining is pivotal towards early detection of cancer as 80% of the breast cancer reported are ER+ and could be detected by this characteristic feature. […]
The cell lines are not controlled by the estrogen and lack the estrogen activity in the nucleus. After additional incubation under conditions permitting membrane traffic and thus endocytosis, fast and thorough internalization of ligand-receptor complexes into an intracellular compartment could be detected. […]

A further data set concerns cell lines. Briefly: toxic effect on the cell lines. Type of data set: cell-based. Particulars: glucosammonium ion in place of sodium ion.
For another data set, the system named is MCF-7 [ER+] cells. Kind of data set: NIRF staining / confocal laser microscopy of MCF-7 cells. Particulars: for cellular localisation / binding of fluorescence: MCF-7 (ER+), confocal microscopy, 1 μM. The data set is classed as cell-based, Human. On the procedure:
as §1
MCF-7 and MDA-MB-231 cells are cultured in DMEM/F12 medium without phenol red (ACTREC, Mumbai) supplemented with 10% fetal bovine serum. Cells in suspension (50 μl) are added to each well of a 96-well culture plate for a final concentration of 1×10^3 Cells/well and incubated for 24 h at 37° C. in carbon dioxide chamber.
The NIRFDC with initial concentration of 24.5 mg/2 ml of DMSO solution is added to each well, and the cultures further incubated for 2 h. The cells are treated at different concentration levels of 1:10, 1:50, 1:100, 1:500 and 1:1000 of DMSO. The cells were then re-suspended in 100 μl of 0.04N HCl/isopropanol solution.
Cell smears are prepared by rolling the swab across the top half of the well of a microscope slide. The opposite side of the swab is rolled over the bottom half of the well. There after the slide is allowed to air dry completely. Then the slide is fixed in chilled (2° to 8° C.) acetone for 10 minutes, which is further removed and allowed to air dry completely. Slides are stored at ≤−20° C. with desiccant. On completion, the cells are re-suspend to at least 400 μL in phosphate buffered saline and 200 μL is applied to each slide by cento-centrifugation at 800 rpm for 4 minutes [Br. J Cancer. 58:77-80, (1988)]. This procedure is repeated for fixing both the cell lines.
The smears are stained with the conjugate at different dilutions of 1:10, 1:50, 1:100, 1:500 and 1:1000 and incubated for an hour at about 25° C. Thereafter these cells are given 3 washes of phosphate buffered saline, mounted with DPX (Distrene Plasticyser Xylene) covered and imaged using the Olympus Confocal microscope.
MCF-7 cells maintained at 37° C. in a 5% CO2 atmosphere in phenol red-free minimal essential medium (MEM) containing 10% charcoal stripped calf serum and penicillin, streptomycin, glutamine, are incubated for 4 days in 24 multiwells (NUNC). After 4 days of culture, the medium is removed and the cells are incubated for 1 hour at 37° C. with […] at concentrations ranging from 0.3 nM to 1 nM. Medium is removed and the cells are washed twice with phosphate buffer saline (PBS). 250 μl of absolute ethanol is added to each well (exposition during 20 min).
The in-vitro studies are carried out using the inverted lens Olympus Fluo-View Confocal Microscope. The sample is excited at 754 nm and the emissions are observed using PMT having relatively higher quantum efficiency in the NIR-region.
These cells retained several characteristics of differentiated mammary epithelium including ability to process estradiol via Nuclear and cytoplasmic estrogen receptors and the capability of forming domes. MBA-MB-231 breast cancer cell lines are used as the control. […] The nuclear staining is pivotal towards early detection of cancer as 80% of the breast cancer reported are ER+ and could be detected by this characteristic feature. […]
In-vitro fluorescence signal of malignant cells bearing estrogen receptor positive with the control (cells without intracellular estrogen receptors) are studied. Fluorescence intensity generated by the NIRF Dye-Conjugate in particular to the nucleus and the entire cell is plotted as shown in the (FIG. 6 A, B). […]

Data set [1] can be described thus: tissue kinetics in tumor tissue after injecting. The data set is classed as in vivo. The settings on record: for half-life: in tumor tissue, read-out: tissue-efflux half-life.
The nature of a further data set: plasma protein binding. The data set is classed as in vitro ADME.
Data set [2] can be described thus: partition coefficient studies. Type of data set: physicochemical.
For data set [3], the target named is T1, Estrogen receptor (ER) in human breast cancer tissues (Homo sapiens, UniProt P03372).
T1 construct: from tissue; host or cells: human breast carcinoma tumor tissue, formalin-fixed paraffin sections
T1 sequence (P03372 whole entry): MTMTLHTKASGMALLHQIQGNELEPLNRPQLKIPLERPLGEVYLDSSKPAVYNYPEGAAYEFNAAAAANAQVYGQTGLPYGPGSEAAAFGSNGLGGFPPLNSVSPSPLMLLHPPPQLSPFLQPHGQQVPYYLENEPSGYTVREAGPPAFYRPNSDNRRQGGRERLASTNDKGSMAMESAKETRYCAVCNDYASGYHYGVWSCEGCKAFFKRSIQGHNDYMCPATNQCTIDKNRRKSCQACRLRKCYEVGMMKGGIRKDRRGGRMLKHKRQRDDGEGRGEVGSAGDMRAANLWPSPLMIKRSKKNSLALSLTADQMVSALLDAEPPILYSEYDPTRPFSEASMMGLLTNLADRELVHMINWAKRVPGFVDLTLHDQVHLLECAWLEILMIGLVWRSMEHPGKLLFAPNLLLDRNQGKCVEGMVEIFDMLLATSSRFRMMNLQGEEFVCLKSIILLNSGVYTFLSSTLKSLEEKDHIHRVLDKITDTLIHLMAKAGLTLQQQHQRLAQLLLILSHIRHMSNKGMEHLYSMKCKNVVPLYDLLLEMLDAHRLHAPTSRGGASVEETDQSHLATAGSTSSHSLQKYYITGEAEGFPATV
Kind of data set: ER staining of breast carcinoma tissue sections. Particulars: Non-invasive Ductal, Lobular, Adenocarcinoma and Medullary Carcinoma. On the procedure: The avidin-biotin-peroxidase complex method is used for the paraffin sections fixed in cold buffered formalin and the results are compared with the ER content in the respective tumor tissue. The specific staining for ER is located exclusively in the nuclei of cancer cells in paraffin sections.
The tumor pieces are fixed in buffered formalin (0.1 M sodium phosphate, pH 7.4/10% formalin) for 24 hr at […]. After being rinsed overnight at […]. in 0.1 M sodium phosphate (pH 7.4), they are dehydrated with graded ethanol and embedded in paraffin. Paraffin sections (4 μm) are cut, deparaffinized with xylene, and rinsed thoroughly with absolute ethanol. Then they are soaked in absolute methanol containing 0.3% H2O2 for 30 min at 25° C. to decrease the endogenous peroxidase activity. The sections were washed three times with 50 mM Tris-HCl, pH 7.6/137 mM NaCl (Tris/NaCl) and were incubated with serum (10% in Tris/NaCl) for 30 min at 25° C. so as to reduce the nonspecific staining. Excess serum is removed by blotting. I˜g/ml) or with normal rat IgG (10 A·g/ml) for 30 min at 37° C. After being washed with Tris/NaCl. […]

Data set [4] is described as follows: optical properties of dye (absorption, emission, quantum yield). The data set is classed as physicochemical. The settings on record: for Quantum yield φ: ICG as standard; for absorption maxima (wavelength): solvent not stated. On the procedure: The increased fluorescence quantum yield of the hydrophilic derivatives reduces the risk of the forming fluorescence-quenched aggregation. […] Thus the conjugate can be used for tagging estradiol because of its ability to form monoderivatized activated precursors as it has a carboxylic group which can be tailored to attach to functional groups of biomoloecules like estradiol.
The excitation and emission peaks for the conjugate are recorded in the NIR region as 757 nm and 788 nm respectively. The potential of the compound in the application as contrast agents for fluorescence imaging modalities, where the fluorescence emission of the dye is expected to be detectable in high sensitivity above low tissue background is analysed on the breast cancer cell lines MCF-7/MDA-MB-231.

The conditions of data set [5]: ICG as standard; cited from earlier work.

Turning to `CC/C(=C(/CC)c1ccc(O)cc1)c1ccc(O)cc1` [Diethylstilbestrol], the “blocking of entry of the estradiol conjugate into the nucleus” value in the data set on MCF-7 cells is on record as “inhibited the entry of the estradiol into the nucleus”; with MCF-7 cells (listed as DES), “blocking operation of the estrogen conjugated dye from entering the nucleus”.
In general, half-life refers to how long it takes for the measured level to halve. In general, fraction unbound refers to the share of the substance not bound to proteins or other matrix. A lower fraction unbound goes with little free substance. With `CC1(C)C(/C=C/C=C/C=C/C=C2\N(CCCCS(=O)(=O)O)c3ccc(C(=O)Oc4ccc5c(c4)CCC4C5CC[C@@]5(C)C4CC[C@@H]5O)cc3C2(C)C)=[N+](CCCCS(=O)(=O)[O-])c2ccc(C(=O)Oc3ccc4c(c3)CCC3C4CC[C@@]4(C)C3CC[C@@H]4O)cc21` (stereo partly drawn) [conjugate], the “cellular localisation / binding of fluorescence” value (from here on “cellular localisation / binding”) in the data set on MDA-MB-231 [ER-] cells is listed as “only the plasma membrane staining”. The “cellular localisation / binding” value with MDA-MB-231 [ER-] cells (listed as NIRFDC) is on record as “poor binding of conjugate into the nucleus”. Besides, the “toxic effect on the cell lines” value in the data set on cell lines was “reduce the toxic effect on the cell lines”. Further, in the data set on MCF-7 [ER+] cells (24 h), the “signal intensity of MCF-7 cells compared to MDA-MB-231” value is given as about 2.4 fold. Also, in the data set on MCF-7 [ER+] cells, the “cellular localisation / binding” value is “specific high affinity binding sites of estrogen molecule on to the nucleus and membrane”. In addition, the “cellular localisation / binding” value in the data set with MCF-7 [ER+] cells (listed as NIRFD-conjugate) was “majority of the receptor-associated fluorescence co-localized at the Nucleus and a minority in the plasma membrane”. Also, in the data set with MCF-7 [ER+] cells (listed as NIRFDC), the “cellular localisation / binding” value is given as “very clear localization of conjugated dye in the nucleus; also recorded: significant amount of binding is seen in the nucleus”. The “initial tissue absorption coefficient compared to ICG” value in [1] (in vivo) is on record as “two-fold higher”. The half-life in data set [1] (other: injection (kind of injection not stated)) came out at 1.22 h. The tumor-to-tissue concentration gradient entry in data set [1] (up to one hour after injecting) is “elevated tumor-to-tissue concentration gradient for up to one hour after injecting”. This molecule yielded a fraction unbound in “plasma protein binding” of over 0.5. Moreover, the partition coefficient entry in data set [2] is on record as “less than 0.005”. Besides, the “ER staining of carcinoma tissue” value in data set [3] is “ER staining which are confined to the nuclei”. For the same molecule, in data set [4], the “Stokes' shift of fluorescence maximum” value is 38 nm and the “absorption maxima (wavelength)” value is recorded as 757. Moreover, in data set [4] (DMSO), the “Strokes' shift” value was 30, the λmax absorption came to 757 nm, the λmax emission was 787 nm and the “Quantum yield φ” value stood at 0.114. For the same molecule, in [4] (NIR region), the emission peak was found to be 788 nm and the excitation peak is given as 757 nm. Besides, in [4] (PBS), the “Strokes' shift” value was found to be 33, the λmax absorption was 755 nm, the λmax emission came out at 788 nm and the “Quantum yield φ” value came to 0.110. Moreover, the “enhancement of fluorescence quantum yields with respect to ICG” value in [4] (physiological environment) is listed as 7-15%.
As to `CC/C(=C(\c1ccccc1)c1ccc(OCCN(C)C)cc1)c1ccccc1` [Tamoxifen], the “blocking of entry of the estradiol conjugate into the nucleus” value in the data set on MCF-7 cells is listed as “inhibited the entry of the estradiol into the nucleus; also recorded: blocking operation of the estrogen conjugated dye entering the nucleus”.
On to `CC1(C)C(/C=C/C=C/C=C/C=C2\N(CCCCS(=O)(=O)O)c3ccc4ccccc4c3C2(C)C)=[N+](CCCCS(=O)(=O)[O-])c2ccc3ccccc3c21` [ICG, Indocyanine Green, reference compound], for which the “cellular localisation / binding” value in the data set on MCF-7 [ER+] cells is “only stains the cells without entering the nucleus of the cell”. Moreover, the half-life in [1] (other: injection (type not specified)) is under 0.167 h. The “quantum yield φ of the standard” value in data set [5] is recorded as 0.13. Also, the “absorption maxima (wavelength)” value in [4] is given as 780.
